Reference: article PMC6450660

Molecular target: PI3KC3 complex II (PI3KC3-C2): VPS34, VPS15, BECN1, UVRAG (human) (UniProt Q8NEB9)
Sequence (Q8NEB9 whole entry, chain 1 of 4): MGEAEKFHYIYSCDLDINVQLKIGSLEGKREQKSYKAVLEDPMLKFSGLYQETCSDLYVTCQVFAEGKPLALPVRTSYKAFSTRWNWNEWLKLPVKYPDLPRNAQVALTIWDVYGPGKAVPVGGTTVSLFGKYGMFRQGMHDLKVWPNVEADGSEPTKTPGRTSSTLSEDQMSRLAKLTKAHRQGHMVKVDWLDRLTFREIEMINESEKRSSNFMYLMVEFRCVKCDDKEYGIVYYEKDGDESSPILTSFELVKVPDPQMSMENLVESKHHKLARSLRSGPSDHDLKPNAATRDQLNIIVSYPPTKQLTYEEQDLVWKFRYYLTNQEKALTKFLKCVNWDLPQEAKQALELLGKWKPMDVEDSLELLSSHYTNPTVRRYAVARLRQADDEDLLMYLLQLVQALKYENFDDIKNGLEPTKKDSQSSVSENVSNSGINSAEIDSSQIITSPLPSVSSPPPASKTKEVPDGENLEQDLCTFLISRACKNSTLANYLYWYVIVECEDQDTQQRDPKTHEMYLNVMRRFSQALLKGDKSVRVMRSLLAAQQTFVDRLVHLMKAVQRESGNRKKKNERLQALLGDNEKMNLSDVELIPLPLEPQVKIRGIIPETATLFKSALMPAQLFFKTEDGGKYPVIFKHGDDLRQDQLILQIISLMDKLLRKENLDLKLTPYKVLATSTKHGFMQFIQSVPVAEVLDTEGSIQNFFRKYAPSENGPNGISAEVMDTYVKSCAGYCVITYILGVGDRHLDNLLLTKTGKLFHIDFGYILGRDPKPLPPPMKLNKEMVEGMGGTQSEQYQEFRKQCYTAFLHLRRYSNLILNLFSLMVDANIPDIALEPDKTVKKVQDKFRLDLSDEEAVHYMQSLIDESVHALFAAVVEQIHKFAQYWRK
Sequence (Q99570 whole entry, chain 2 of 4, further chain): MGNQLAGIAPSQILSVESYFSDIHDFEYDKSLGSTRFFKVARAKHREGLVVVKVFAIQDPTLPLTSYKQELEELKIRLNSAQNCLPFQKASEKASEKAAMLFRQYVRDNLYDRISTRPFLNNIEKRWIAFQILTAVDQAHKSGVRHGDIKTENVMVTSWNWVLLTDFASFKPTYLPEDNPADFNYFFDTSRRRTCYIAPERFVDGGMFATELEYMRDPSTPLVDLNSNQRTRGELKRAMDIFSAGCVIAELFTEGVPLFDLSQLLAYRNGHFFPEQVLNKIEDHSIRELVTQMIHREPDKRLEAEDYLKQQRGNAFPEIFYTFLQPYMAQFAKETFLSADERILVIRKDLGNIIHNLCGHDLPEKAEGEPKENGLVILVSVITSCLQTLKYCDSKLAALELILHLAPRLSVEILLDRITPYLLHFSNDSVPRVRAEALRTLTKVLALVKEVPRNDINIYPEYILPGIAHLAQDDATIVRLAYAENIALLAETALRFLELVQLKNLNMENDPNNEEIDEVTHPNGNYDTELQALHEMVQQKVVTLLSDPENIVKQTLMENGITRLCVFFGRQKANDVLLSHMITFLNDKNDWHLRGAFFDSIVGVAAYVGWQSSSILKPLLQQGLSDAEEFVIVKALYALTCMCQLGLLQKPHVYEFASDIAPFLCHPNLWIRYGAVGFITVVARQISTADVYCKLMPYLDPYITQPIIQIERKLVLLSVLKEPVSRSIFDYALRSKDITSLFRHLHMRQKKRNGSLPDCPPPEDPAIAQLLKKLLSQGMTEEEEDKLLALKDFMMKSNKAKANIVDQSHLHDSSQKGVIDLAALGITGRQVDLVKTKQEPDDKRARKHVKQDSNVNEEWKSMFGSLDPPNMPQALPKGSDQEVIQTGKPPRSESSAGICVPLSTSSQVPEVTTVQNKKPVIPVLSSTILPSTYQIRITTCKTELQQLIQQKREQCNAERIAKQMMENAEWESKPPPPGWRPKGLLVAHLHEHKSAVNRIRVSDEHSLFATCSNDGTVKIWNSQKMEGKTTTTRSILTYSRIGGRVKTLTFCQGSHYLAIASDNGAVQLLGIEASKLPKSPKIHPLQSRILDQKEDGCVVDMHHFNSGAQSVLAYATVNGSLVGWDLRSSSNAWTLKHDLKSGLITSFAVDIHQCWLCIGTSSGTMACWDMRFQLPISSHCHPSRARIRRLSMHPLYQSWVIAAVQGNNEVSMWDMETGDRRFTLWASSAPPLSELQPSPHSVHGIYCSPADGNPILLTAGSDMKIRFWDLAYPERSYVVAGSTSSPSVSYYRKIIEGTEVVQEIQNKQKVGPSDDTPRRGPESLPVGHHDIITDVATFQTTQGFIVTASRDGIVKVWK
Sequence (Q14457 whole entry, chain 3 of 4, further chain): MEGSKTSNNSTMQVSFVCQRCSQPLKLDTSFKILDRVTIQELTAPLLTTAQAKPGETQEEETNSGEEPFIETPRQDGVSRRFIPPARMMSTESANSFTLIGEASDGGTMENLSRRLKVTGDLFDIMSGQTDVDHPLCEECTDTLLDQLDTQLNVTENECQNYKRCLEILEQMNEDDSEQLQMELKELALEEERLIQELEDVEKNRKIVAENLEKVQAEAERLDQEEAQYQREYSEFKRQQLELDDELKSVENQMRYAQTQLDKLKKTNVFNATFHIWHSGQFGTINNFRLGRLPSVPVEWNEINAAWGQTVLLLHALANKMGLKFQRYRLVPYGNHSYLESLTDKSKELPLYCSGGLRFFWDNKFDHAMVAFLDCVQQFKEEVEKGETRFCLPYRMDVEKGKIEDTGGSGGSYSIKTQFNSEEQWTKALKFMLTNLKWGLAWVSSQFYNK
Sequence (Q9P2Y5 whole entry, chain 4 of 4, further chain): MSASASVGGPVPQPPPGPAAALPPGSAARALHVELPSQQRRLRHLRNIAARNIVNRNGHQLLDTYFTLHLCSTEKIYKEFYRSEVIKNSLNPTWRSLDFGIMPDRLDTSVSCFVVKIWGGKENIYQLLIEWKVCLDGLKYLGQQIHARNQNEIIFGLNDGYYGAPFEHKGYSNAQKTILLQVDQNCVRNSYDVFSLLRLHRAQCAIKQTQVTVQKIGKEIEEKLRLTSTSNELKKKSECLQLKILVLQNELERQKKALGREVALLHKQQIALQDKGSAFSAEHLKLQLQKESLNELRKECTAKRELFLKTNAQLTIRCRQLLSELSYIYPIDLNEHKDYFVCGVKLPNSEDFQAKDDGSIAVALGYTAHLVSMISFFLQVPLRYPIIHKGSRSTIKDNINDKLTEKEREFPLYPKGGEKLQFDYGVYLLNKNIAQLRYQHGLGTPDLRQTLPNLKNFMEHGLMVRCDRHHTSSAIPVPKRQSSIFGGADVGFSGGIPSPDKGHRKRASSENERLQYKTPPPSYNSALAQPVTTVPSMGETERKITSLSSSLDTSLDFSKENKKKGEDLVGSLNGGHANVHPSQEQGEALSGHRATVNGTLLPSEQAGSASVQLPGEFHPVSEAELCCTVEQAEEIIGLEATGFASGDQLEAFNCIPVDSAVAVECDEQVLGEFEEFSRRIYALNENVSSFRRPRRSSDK

Substance | PI3KC3-C2 lipid kinase activity on SUVs (ADP-Glo), complexes at 12.5 nM
MBP tagged Rubicon PIKBD (PI3KC3-C2 binding domain) (from UniProt Q92622 1-972) (domain or fragment) | 2 fold
MBP tagged Rubicon MR (middle region) (from UniProt Q92622 1-972) (domain or fragment) | 2 fold
